B1: Q333P (protein)
chain: MQLRNPELHLGCALALRFLALVSWDIPGARALDNGLARTPTMGWLHWERFMCNLDCQEEPDSCISEKLFMEMAELMVSEGWKDAGYEYLCIDDCWMAPQRDSEGRLQADPQRFPHGIRQLANYVHSKGLKLGIYADVGNKTCAGFPGSFGYYDIDAQTFADWGVDLLKFDGCYCDSLENLADGYKHMSLALNRTGRSIVYSCEWPLYMWPFQKPNYTEIRQYCNHWRNFADIDDSWKSIKSILDWTSFNQERIVDVAGPGGWNDPDMLVIGNFGLSWNQQVTQMALWAIMAAPLFMSNDLRHISPQAKALLQDKDVIAINQDPLGKQGYQLRPGDNFEVWERPLSGLAWAVAMINRQEIGGPRSYTIAVASLGKGVACNPACFITQLLPVKRKLGFYEWTSRLRSHINPTGTVLLQLENTMQMSLKDLL
B2: G334R (protein)
chain: MQLRNPELHLGCALALRFLALVSWDIPGARALDNGLARTPTMGWLHWERFMCNLDCQEEPDSCISEKLFMEMAELMVSEGWKDAGYEYLCIDDCWMAPQRDSEGRLQADPQRFPHGIRQLANYVHSKGLKLGIYADVGNKTCAGFPGSFGYYDIDAQTFADWGVDLLKFDGCYCDSLENLADGYKHMSLALNRTGRSIVYSCEWPLYMWPFQKPNYTEIRQYCNHWRNFADIDDSWKSIKSILDWTSFNQERIVDVAGPGGWNDPDMLVIGNFGLSWNQQVTQMALWAIMAAPLFMSNDLRHISPQAKALLQDKDVIAINQDPLGKQGYQLRQRDNFEVWERPLSGLAWAVAMINRQEIGGPRSYTIAVASLGKGVACNPACFITQLLPVKRKLGFYEWTSRLRSHINPTGTVLLQLENTMQMSLKDLL
B3: G334V (protein)
chain: MQLRNPELHLGCALALRFLALVSWDIPGARALDNGLARTPTMGWLHWERFMCNLDCQEEPDSCISEKLFMEMAELMVSEGWKDAGYEYLCIDDCWMAPQRDSEGRLQADPQRFPHGIRQLANYVHSKGLKLGIYADVGNKTCAGFPGSFGYYDIDAQTFADWGVDLLKFDGCYCDSLENLADGYKHMSLALNRTGRSIVYSCEWPLYMWPFQKPNYTEIRQYCNHWRNFADIDDSWKSIKSILDWTSFNQERIVDVAGPGGWNDPDMLVIGNFGLSWNQQVTQMALWAIMAAPLFMSNDLRHISPQAKALLQDKDVIAINQDPLGKQGYQLRQVDNFEVWERPLSGLAWAVAMINRQEIGGPRSYTIAVASLGKGVACNPACFITQLLPVKRKLGFYEWTSRLRSHINPTGTVLLQLENTMQMSLKDLL
B4: D335A (protein)
chain: MQLRNPELHLGCALALRFLALVSWDIPGARALDNGLARTPTMGWLHWERFMCNLDCQEEPDSCISEKLFMEMAELMVSEGWKDAGYEYLCIDDCWMAPQRDSEGRLQADPQRFPHGIRQLANYVHSKGLKLGIYADVGNKTCAGFPGSFGYYDIDAQTFADWGVDLLKFDGCYCDSLENLADGYKHMSLALNRTGRSIVYSCEWPLYMWPFQKPNYTEIRQYCNHWRNFADIDDSWKSIKSILDWTSFNQERIVDVAGPGGWNDPDMLVIGNFGLSWNQQVTQMALWAIMAAPLFMSNDLRHISPQAKALLQDKDVIAINQDPLGKQGYQLRQGANFEVWERPLSGLAWAVAMINRQEIGGPRSYTIAVASLGKGVACNPACFITQLLPVKRKLGFYEWTSRLRSHINPTGTVLLQLENTMQMSLKDLL
B5: D335E (protein)
chain: MQLRNPELHLGCALALRFLALVSWDIPGARALDNGLARTPTMGWLHWERFMCNLDCQEEPDSCISEKLFMEMAELMVSEGWKDAGYEYLCIDDCWMAPQRDSEGRLQADPQRFPHGIRQLANYVHSKGLKLGIYADVGNKTCAGFPGSFGYYDIDAQTFADWGVDLLKFDGCYCDSLENLADGYKHMSLALNRTGRSIVYSCEWPLYMWPFQKPNYTEIRQYCNHWRNFADIDDSWKSIKSILDWTSFNQERIVDVAGPGGWNDPDMLVIGNFGLSWNQQVTQMALWAIMAAPLFMSNDLRHISPQAKALLQDKDVIAINQDPLGKQGYQLRQGENFEVWERPLSGLAWAVAMINRQEIGGPRSYTIAVASLGKGVACNPACFITQLLPVKRKLGFYEWTSRLRSHINPTGTVLLQLENTMQMSLKDLL
B6: D335G (protein)
chain: MQLRNPELHLGCALALRFLALVSWDIPGARALDNGLARTPTMGWLHWERFMCNLDCQEEPDSCISEKLFMEMAELMVSEGWKDAGYEYLCIDDCWMAPQRDSEGRLQADPQRFPHGIRQLANYVHSKGLKLGIYADVGNKTCAGFPGSFGYYDIDAQTFADWGVDLLKFDGCYCDSLENLADGYKHMSLALNRTGRSIVYSCEWPLYMWPFQKPNYTEIRQYCNHWRNFADIDDSWKSIKSILDWTSFNQERIVDVAGPGGWNDPDMLVIGNFGLSWNQQVTQMALWAIMAAPLFMSNDLRHISPQAKALLQDKDVIAINQDPLGKQGYQLRQGGNFEVWERPLSGLAWAVAMINRQEIGGPRSYTIAVASLGKGVACNPACFITQLLPVKRKLGFYEWTSRLRSHINPTGTVLLQLENTMQMSLKDLL
B7: D335V (protein)
chain: MQLRNPELHLGCALALRFLALVSWDIPGARALDNGLARTPTMGWLHWERFMCNLDCQEEPDSCISEKLFMEMAELMVSEGWKDAGYEYLCIDDCWMAPQRDSEGRLQADPQRFPHGIRQLANYVHSKGLKLGIYADVGNKTCAGFPGSFGYYDIDAQTFADWGVDLLKFDGCYCDSLENLADGYKHMSLALNRTGRSIVYSCEWPLYMWPFQKPNYTEIRQYCNHWRNFADIDDSWKSIKSILDWTSFNQERIVDVAGPGGWNDPDMLVIGNFGLSWNQQVTQMALWAIMAAPLFMSNDLRHISPQAKALLQDKDVIAINQDPLGKQGYQLRQGVNFEVWERPLSGLAWAVAMINRQEIGGPRSYTIAVASLGKGVACNPACFITQLLPVKRKLGFYEWTSRLRSHINPTGTVLLQLENTMQMSLKDLL
B8: D335Y (protein)
chain: MQLRNPELHLGCALALRFLALVSWDIPGARALDNGLARTPTMGWLHWERFMCNLDCQEEPDSCISEKLFMEMAELMVSEGWKDAGYEYLCIDDCWMAPQRDSEGRLQADPQRFPHGIRQLANYVHSKGLKLGIYADVGNKTCAGFPGSFGYYDIDAQTFADWGVDLLKFDGCYCDSLENLADGYKHMSLALNRTGRSIVYSCEWPLYMWPFQKPNYTEIRQYCNHWRNFADIDDSWKSIKSILDWTSFNQERIVDVAGPGGWNDPDMLVIGNFGLSWNQQVTQMALWAIMAAPLFMSNDLRHISPQAKALLQDKDVIAINQDPLGKQGYQLRQGYNFEVWERPLSGLAWAVAMINRQEIGGPRSYTIAVASLGKGVACNPACFITQLLPVKRKLGFYEWTSRLRSHINPTGTVLLQLENTMQMSLKDLL
B9: N336D (protein)
chain: MQLRNPELHLGCALALRFLALVSWDIPGARALDNGLARTPTMGWLHWERFMCNLDCQEEPDSCISEKLFMEMAELMVSEGWKDAGYEYLCIDDCWMAPQRDSEGRLQADPQRFPHGIRQLANYVHSKGLKLGIYADVGNKTCAGFPGSFGYYDIDAQTFADWGVDLLKFDGCYCDSLENLADGYKHMSLALNRTGRSIVYSCEWPLYMWPFQKPNYTEIRQYCNHWRNFADIDDSWKSIKSILDWTSFNQERIVDVAGPGGWNDPDMLVIGNFGLSWNQQVTQMALWAIMAAPLFMSNDLRHISPQAKALLQDKDVIAINQDPLGKQGYQLRQGDDFEVWERPLSGLAWAVAMINRQEIGGPRSYTIAVASLGKGVACNPACFITQLLPVKRKLGFYEWTSRLRSHINPTGTVLLQLENTMQMSLKDLL

Test system: mutant form of α-Gal A expressed in HEK-293 cells
Assay: HEK assay (GLP HEK / Migalastat Amenability Assay): α-Gal A activity in lysates of transiently transfected HEK-293 cells incubated with or without 10 μM migalastat
Format: cell-based, human
Details: for Absolute increase (% WT) / Relative increase: 10 μM migalastat versus baseline; for Baseline α-Gal A activity (% WT): absence of migalastat; for Baseline α-Gal A activity (% WT) / 10 μM migalastat α-Gal A activity (% WT): percentage of baseline wild-type α-Gal A activity; for Baseline α-Gal A activity (% WT) / Baseline α-Gal A activity / 10 μM migalastat α-Gal A activity / 10 μM migalastat α-Gal A activity (% WT): mean ± SEM; for Baseline α-Gal A activity / 10 μM migalastat α-Gal A activity: lysates of HEK-293 cells transiently transfected with the mutant form; for Baseline α-Gal A activity: incubated 5 days in absence of migalastat; for 10 μM migalastat α-Gal A activity: incubated 5 days with 10 μM migalastat; for 10 μM migalastat α-Gal A activity (% WT): with 10 μM migalastat, 5 days
How it was run: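 HEK-293 cells transiently transfected with mutant α-Gal A and incubated with or without 10 μM migalastat; lysate activity given as nmol free 4-MU released per mg protein per hour. Values are mean±SEM.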

| Molecule | Absolute increase (% WT) | Relative increase | Baseline α-Gal A activity (% WT) | Baseline α-Gal A activity [nmol/mg/h] | 10 μM migalastat α-Gal A activity [nmol/mg/h] | 10 μM migalastat α-Gal A activity (% WT) |
| --- | --- | --- | --- | --- | --- | --- |
| B1 | 31.0 | 1.9 | 30.3 ± 1.7 | 11819 ± 1039 | 22746 ± 1255 | 61.3 ± 3.9 |
| B2 | 17.5 | 1.2 | 58.9 ± 4.6 | 25886 ± 3237 | 31174 ± 2016 | 76.4 ± 2.7 |
| B3 | 13.7 | 1.2 | 68.4 ± 3.2 | 31991 ± 2390 | 38301 ± 2744 | 82.1 ± 3.8 |
| B4 | 27.7 | 1.6 | 57.9 ± 3 | 21055 ± 1662 | 33829 ± 4641 | 85.6 ± 6.9 |
| B5 | 17.7 | 1.3 | 68.7 ± 4.8 | 30532 ± 1962 | 39124 ± 2722 | 86.5 ± 4.5 |
| B6 | 15.7 | 1.3 | 51.3 ± 2.8 | 22766 ± 1355 | 30341 ± 3325 | 67 ± 5.6 |
| B7 | 19.4 | 2.1 | 18.1 ± 0.6 | 7938 ± 336 | 16557 ± 929 | 37.5 ± 1.6 |
| B8 | 11.0 | 1.3 | 43 ± 1.7 | 19469 ± 982 | 24732 ± 2214 | 54.1 ± 3.5 |
| B9 | 34.3 | 1.7 | 53.7 ± 2.8 | 23869 ± 1072 | 39534 ± 2519 | 88.1 ± 4.9 |

Reference: US11833164B2, “Methods of treating Fabry disease in patients having a mutation in the GLA gene” (Amicus Therapeutics, Inc., priority 2019, dated 2023)
